# Assay results: patent US20230340159A1 (published 2023)
# T1: murine HER2 (murine, UniProt P70424 23-1256)
# T1 chain: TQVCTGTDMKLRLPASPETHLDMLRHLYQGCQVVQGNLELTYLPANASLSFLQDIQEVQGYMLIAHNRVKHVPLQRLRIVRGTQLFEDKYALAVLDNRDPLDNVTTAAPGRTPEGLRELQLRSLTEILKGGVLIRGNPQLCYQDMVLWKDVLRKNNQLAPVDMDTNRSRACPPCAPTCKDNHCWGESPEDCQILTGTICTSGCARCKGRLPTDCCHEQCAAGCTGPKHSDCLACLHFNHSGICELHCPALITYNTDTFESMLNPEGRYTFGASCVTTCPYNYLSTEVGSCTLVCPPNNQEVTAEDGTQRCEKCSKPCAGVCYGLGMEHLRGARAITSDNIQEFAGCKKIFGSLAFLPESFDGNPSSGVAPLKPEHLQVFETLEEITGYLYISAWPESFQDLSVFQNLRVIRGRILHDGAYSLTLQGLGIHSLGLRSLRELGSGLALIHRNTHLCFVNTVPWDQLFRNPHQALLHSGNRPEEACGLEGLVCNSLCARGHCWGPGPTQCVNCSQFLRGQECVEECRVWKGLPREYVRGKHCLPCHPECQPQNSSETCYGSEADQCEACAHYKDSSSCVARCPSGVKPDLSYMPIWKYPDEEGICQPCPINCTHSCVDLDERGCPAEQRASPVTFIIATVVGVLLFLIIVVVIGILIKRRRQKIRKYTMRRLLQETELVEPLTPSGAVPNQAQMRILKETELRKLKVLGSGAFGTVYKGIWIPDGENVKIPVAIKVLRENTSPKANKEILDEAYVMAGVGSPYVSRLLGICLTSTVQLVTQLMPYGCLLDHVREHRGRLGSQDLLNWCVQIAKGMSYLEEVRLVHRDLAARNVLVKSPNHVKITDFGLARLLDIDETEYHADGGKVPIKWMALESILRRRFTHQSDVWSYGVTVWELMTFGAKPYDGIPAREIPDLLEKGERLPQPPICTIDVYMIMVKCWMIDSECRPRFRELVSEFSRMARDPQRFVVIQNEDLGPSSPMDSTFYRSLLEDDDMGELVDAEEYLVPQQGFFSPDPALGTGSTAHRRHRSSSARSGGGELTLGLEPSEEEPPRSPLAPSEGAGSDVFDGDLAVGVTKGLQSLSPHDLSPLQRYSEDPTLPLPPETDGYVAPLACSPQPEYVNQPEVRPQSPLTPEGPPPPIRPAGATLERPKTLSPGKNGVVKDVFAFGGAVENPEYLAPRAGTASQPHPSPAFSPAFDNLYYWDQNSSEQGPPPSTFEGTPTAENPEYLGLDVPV
# B1: h456 Pro509 (antibody, V domains shown)
# VH: QVQLVESGGGLVQPGGSLRLSCAASGSALIINAMGWYRQAPGKQRELVATVTRSGRTNYADSVKGRFTISRDNSKNTLYLQMNSLRAEDTAVYYCNVALWIADGEYDYWGQGTLVTVSS
# B2: 1160 Pro1046 (antibody, V domains shown)
# VH: QVQLQESGGGLVQAGGSLRLSCAASGRTFSNERLGWFRQAPGKERELVAAIRWSGVIIGYADSVRGRFTISRDNAKSTVYLQMNSLRPEDTAVYFCAADRGVYGTWDYWGQGTQVTVSS
# B3: 1139 Pro1043 (protein)
# chain: QVQLQESGGGLVQPGGSLRLSCAASGFTFDDYAMSWIRQAPGKEMEWVSGINWSGTHTRYADSVKGRFTISRDNAKNTLDLQMNSLISEDTAVYYCARGFAADSRSTRGQGTQVTVSS
# B4: h1139 Pro1060 (protein)
# chain: QVQLVESGGGVVRPGGSLRLSCAASGFTFDDYAMSWIRQAPGKEMEWVSGINWSGTHTRYADSVKGRFTISRDNAKNSLYLQMNSLRAEDTALYYCARGFAADSRSTRGQGTLVTVSS
# B5: 1159 Pro1045 (antibody, V domains shown)
# VH: QVQLQESGGGLVQAGGSLRLSCATSGRTFSSLAMGWFRQAPGKERELVAGISWSGSTTYYADSVKGRFAISRDNAKNTVYLQMNSLKPEDTAVYYCAARTSSIATIGREYDYWGQGTQVTVSS
# B6: h1159 Pro1062 (antibody, V domains shown)
# VH: QVQLLESGGGLVQPGGSLRLSCATSGRTFSSLAMGWFRQAPGKERELVAGISWSGSTTYYADSVKGRFAISRDNSKNTLYLQMNSLRAEDTAVYYCAARTSSIATIGREYDYWGQGTLVTVSS
# B7: h1156 Pro1061 (antibody, V domains shown)
# VH: QVQLLESGGGLVQPGGSLRLSCAASRNIGSNYAVGWFRQAPGKEREPVAALRWTGSIIGYDDSLRGRFTISKDNSKNTLYLQMNSLKPEDTAVYYCAARILDRSSYDYWGQGTLVTVSS
# B8: 1156 Pro1044 (antibody, V domains shown)
# VH: QVQLQESGGGLVQAGGSLKVSCAASRNIGSNYAVGWFRQAPGKEREPVAALRWTGSIIGYDDSLRGRFTISKDDAKNTVYLQMNSLKPEDTGVYYCAARILDRSSYDYWGQGTQVTVSS
# B9: 1055 Pro1036 (protein)
# chain: QVQLQESGGGLVQPGGSLRLTCEVSGRAISSYAISWFRQAPGEEREFVAAINWSGTHTNYADSVKGRFTISRDNVKNTVYLQMNSLKPEDTATYFCSRGWSVFDPDYRGQGTQVTVSS
# B10: 1058 Pro1037 (protein)
# chain: QVQLQESGGGLVQAGGSLRLTCAASGRAISSYAISWFRQAPGEEREFVAAINWSGTHTDYADSVKGRFTISRDNVKRTVYLQMNSLKPEDTATYFCSRGWSVFDPDYRGQGTQVTVSS
# B11: 1059 Pro1038 (protein)
# chain: QVQLQESGGGLVQPGGSLRLTCAASGRAISSYAISWFRQAPGEEREFVAAINWSGTHTDYADSVKGRFTISRDNAKNTVYLQMNSLKPEDTAVYFCSRGWSVFDPDYRGQGTQVTVSS
# B12: 1091 Pro1039 (protein)
# chain: QVQLQESGGGLVQPGGSLRLSCAASGFTFDDYAMSWVRQAPGKGLEWVSSINWSGTHTDYADSVKGRFTISRDNAKNTLYLQMNSLKSEDSAVYYCVKGWRLTGGYYDSVQGQGTQVTVSS
# B13: 1097 Pro1041 (protein)
# chain: QVQLQESGGGLVQPGGSLRLSCAASGFIFDDYAMTWVRQAPGKGLEWVSSINWSGTHTDYADSVKGRFTISRDNAKNTLYLQMNSLKSEDSAVYYCVKGWRHTDNYYAGVQGQGTQVTVSS
# B14: 1092 Pro1040 (protein)
# chain: QVQLQESGGGLVQAGASLRLSCAASGFTFDDYALSWVRQAPGKGLEWVSSINWSGTHTDYADSVKGRFTISRDNAKNTLYLQMNSLKSEDSAVYYCVKGWRLTGGYYDSVQGQGTQVTVSS
# B15: mouse CA9 (enzyme)
# chain: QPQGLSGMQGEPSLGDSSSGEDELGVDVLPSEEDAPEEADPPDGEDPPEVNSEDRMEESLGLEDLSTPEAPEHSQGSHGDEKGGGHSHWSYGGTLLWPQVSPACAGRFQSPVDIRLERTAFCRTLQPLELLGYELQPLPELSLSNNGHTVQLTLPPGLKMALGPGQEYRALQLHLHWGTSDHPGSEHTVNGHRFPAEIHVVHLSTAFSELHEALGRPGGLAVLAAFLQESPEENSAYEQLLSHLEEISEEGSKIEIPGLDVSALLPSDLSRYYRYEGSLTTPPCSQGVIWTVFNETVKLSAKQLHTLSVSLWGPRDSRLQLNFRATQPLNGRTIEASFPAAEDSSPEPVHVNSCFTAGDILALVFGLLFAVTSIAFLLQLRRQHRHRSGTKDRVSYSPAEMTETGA
# B16: 1121 Pro1042 (protein)
# chain: QVQLQESGGGLVQAGGSLRLSCAASGFIFSDYAMTWVRQAPGKGLEWVSSINWSGTHTNYADSVKGRFTISRDNAKKTLYLQMNSLKSEDTAVYYCARGWMVVPDSTRGQGTQVTVSS
# B17: h1162 Pro1064 (antibody, V domains shown)
# VH: QVQLLESGGGLVQPGGSLRLSCAASGRPFSGNAMGWFRQAPGKEREFVAAISWSGDSTYYADSVKGRFTISRDNSKNTLYLQMNSLRAEDTAVYYCAATRSFYSRTYYTRPSDYNYWGPGTLVTVSS
# B18: 1162 Pro1047 (antibody, V domains shown)
# VH: QVQLQESGGGLVQAGGSLRLSCAASGRPFSGNAMGWFRQAPGKEREFVAAISWSGDSTYYADSVKGRFTISRDNDENTAYLQMNSLKPEDTAVYYCAATRSFYSRTYYTRPSDYNYWGPGTQVTVSS
# How the values were obtained:
# mouse CA9 protein = mouse CA9 protein (mouse, UniProt Q8VHB5 32-437)
# mouse CA9 protein, sequence (Q8VHB5 32-437): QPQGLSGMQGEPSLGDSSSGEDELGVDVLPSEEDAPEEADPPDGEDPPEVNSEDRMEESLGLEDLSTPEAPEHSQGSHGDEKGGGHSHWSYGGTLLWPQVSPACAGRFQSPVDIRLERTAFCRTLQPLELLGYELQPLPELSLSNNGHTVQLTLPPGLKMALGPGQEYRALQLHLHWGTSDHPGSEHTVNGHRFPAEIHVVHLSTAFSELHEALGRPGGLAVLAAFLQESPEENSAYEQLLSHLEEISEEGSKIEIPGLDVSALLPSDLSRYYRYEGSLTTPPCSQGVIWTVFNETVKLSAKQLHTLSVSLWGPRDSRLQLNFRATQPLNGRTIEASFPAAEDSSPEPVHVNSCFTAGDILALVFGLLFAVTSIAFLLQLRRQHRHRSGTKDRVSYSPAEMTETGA
# Human Her2 protein = Human Her2 protein (human, UniProt P04626 23-652)
# murine HER2 = biological target: T1, murine HER2
# 456, sequence (Q8VHB5 32-437): as above
Binder,Kd (Human Her2 protein),further results
B1,,Kd (mouse CA9 protein): 1.4 nM
B2,56.7 nM,
B3,5.6 nM,
B4,7.3 nM,
B5,18 nM,Kd (murine HER2): 80 nM
B6,106 nM,Kd (murine HER2): 19100 nM
B7,< 0.01 nM,
B8,6.6 nM,
B9,53.1 nM,
B10,8.6 nM,
B11,23 nM,
B12,6 nM,
B13,2.5 nM,
B14,3.1 nM,
B15,,Kd 456: 8.2 nM
B16,3.8 nM,
B17,22.9 nM,Kd (murine HER2): 122 nM
B18,21.4 nM,Kd (murine HER2): 54 nM
